The supplement of paper PMC9170038

Test system: MS2 coat protein
Experiment: apparent KD of MS2 coat protein; designed switch direction (-1 OFF switch, 1 ON switch): -1; higher = weaker reporter binding
Summary of the method: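 The buffer was Tris-HCl pH 7.5 with KCl, MgCl2, BSA, DTT, tRNA and Tween-20. In it, SNAP-549-labelled MS2 coat protein was titrated in doubling steps from 0.7 or 1.5 nM to 3 µM over chip-bound RNA switches transcribed by stalled E. coli RNA polymerase on Illumina chips. Apparent KD is the per-design median over clusters of curve fits to normalised fluorescence.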

[1] = input ligand: microRNA oligo, concentration not stated
[2] = Eterna round: R95, input ligand: FMN 200 uM
[3] = Eterna round: R95, input ligand: microRNA oligo, concentration not stated
[4] = Eterna round: R95, input ligand: none

| Sequence | apparent KD of MS2 coat protein (input ligand: FMN 200 uM) | apparent KD of MS2 coat protein (input ligand: none) | also measured |
| --- | --- | --- | --- |
| UUGUCUAAUGUGAGGAUAUGCUGGUCCAUAGAUCAGCAGAAGGCACAUGAGGAUCACCCAUGUGAUAACACAAU (Eterna round: R97, puzzle: Brourd's mod of Exclusion 4) | 296 nM | 21.3 nM |  |
| ACAUGAGGAUCACCCAUGUUUUUUGGGUACUUUUGUUUCUGCAAGGAUAUGCAUUAUUUAUAUACGCAGAAGGUGCAUUACUUC [JR_ExcNG3_Sub061] (Eterna round: R96, puzzle: Exclusion NG 3) |  |  | apparent KD of MS2 coat protein [1]: 501 nM |
| AAUUAUUGAUGAGGAUAUUGUGGUGAAACACGACAAGAAGGCAUUAUACACAUGAGGAUCACCCAUGUGAGCCUGAUGCAUAUA [Ex NG1 #59] (Eterna round: R96, puzzle: Exclusion NG 1) |  |  | apparent KD of MS2 coat protein [1]: 12.4 nM |
| GCGCCAUCGUGAGAUGGCGUAACGACAUGAGGAUCACCCAUGUAGGAUAUCGAUUGCUUUGCAGUCGAGAAGGGCAAGGUAAGU [JL ENG3 3.83] (Eterna round: R96, puzzle: Exclusion NG 3) |  |  | apparent KD of MS2 coat protein [1]: 24.3 nM |
| AAGAAGCAAGGAUAUACAACGGGCCACAGAGCCGAAGGGCAACAUGAGGAUCACCCAUGUAGAAGGUGCGUAAC [Lecebeqube] (puzzle: Exclusion 2) |  |  | apparent KD of MS2 coat protein [2]: 149 nM; apparent KD of MS2 coat protein [3]: 30.3 nM; apparent KD of MS2 coat protein [4]: 28.2 nM |
| UUUUUGUAUGAAGGAUAUACUUAACAUGAGGAUCACCCAUGUGGUGUUGUGAGUGAGUGAGUUUAGUAGAAGGUCAAGUAUUUU [JMF's solution 46] (Eterna round: R96, puzzle: Exclusion NG 2) | 580 nM | 390 nM | apparent KD of MS2 coat protein [1]: 606 nM |
| GCACGAAGUGUAGGAUAUCUGUGCGAUUAGCUCAGAGAAGGACACAUGAGGAUCACCCAUGUGUUCCAAUACCCAAAUACGUGC [Eli exng1 - 061] (Eterna round: R96, puzzle: Exclusion NG 1) | 11 nM | 11.3 nM | apparent KD of MS2 coat protein [1]: 7.69 nM |
| ACUCUAUAGUAGGAUAUCAUCAAACUAUUGUGAUGAGAAGGACUAACAUGAGGAUCACCCAUGUUAACGUGAAG [Mod of Brourd 5 - Jieux - Exclusion 6] (Eterna round: R97, puzzle: Exclusion 6) | 24.3 nM | 21.1 nM |  |
| CCAUCCAGUGUGAGGAUAUGCUGGUCCUUGGAUCAGCAGAAGGCACAUGAGGAUCACCCAUGUGAAUAGGAUGG [Mat - Exclusion 4 - JL Mod - D85] (puzzle: Brourd's mod of Exclusion 4) |  |  | apparent KD of MS2 coat protein [2]: 153 nM; apparent KD of MS2 coat protein [3]: 18.9 nM; apparent KD of MS2 coat protein [4]: 24.1 nM |
| AAAAAGUGAGGAUAUACAUGAGGAUCACCCAUGUAAUAAAAAAAAAGGGUGGAAGAAAGUAGAAGGCACCAAAA [Ex 3 May 48] (Eterna round: R96, puzzle: Exclusion 3) | 323 nM | 65.3 nM | apparent KD of MS2 coat protein [1]: 64.5 nM |
| CAGCGAUCAGGAUAUACAUGAGGAUCACCCAUGUGUUCCAGCUAGGAAACUAGCAAAUGUAGAAGGGAUCGCUG [jl-ex3-4.00 salish99 mod] (Eterna round: R97, puzzle: Exclusion 3) | 32.2 nM | 346 nM |  |
| CACAAAACUGUCAGGAUAUCAGAUGCCGACCCAUAUGAGAAGGGACAUGAGGAUCACCCAUGUACUGGUUCUCA [BmEX4 B.6] (Eterna round: R97, puzzle: Brourd's mod of Exclusion 4) | 13.9 nM | 19.8 nM |  |
| UCGCUCCGUGUAGGAUAUCGUUGUACCCUGCGGCGAGAAGGACAUGAGGAUCACCCAUGUAUGUUAUUAUCACGCGUGGCGCAC [Design 70] (Eterna round: R96, puzzle: Exclusion NG 1) | 15.4 nM | 21.6 nM | apparent KD of MS2 coat protein [1]: 15.5 nM |
| UCCUGACAUGAGGAUCACCCAUGUAAGGAUAUCAGCCACCCAGCAAAAGCUGGGCAAGUGAGAAGGUACACGGG [EX1 A.30] (Eterna round: R97, puzzle: Exclusion 1) | 157 nM | 30.6 nM |  |
| ACCUCACUUGAGGAUCACCCAAGUCAGGAUAUACUCGUUUGCCGCACGACGCGGCAUUGUAGAAGGGACGGGCU [Soraedrale] (Eterna round: R97, puzzle: Exclusion 1) | 34.1 nM | 18.1 nM |  |
| AAGUGCAAAGGAUAUACGUGACUUACUCCAAUUGCUACCCGACAUGAGGAUCACCCAUGUAGAAGGUUGCGCAC [Eternabot (Original) Solution 20] (Eterna round: R97, puzzle: Exclusion 2) | 34.3 nM | 16.6 nM |  |
| UUACUGCAAGGAUAUACAUGAGGAUCACCCAUGUUAAUGACACGGUGCAGCUUCGACAGUAGAAGGUGCGUGGG [Eternabot (L1) Solution 71] (Eterna round: R97, puzzle: Exclusion 3) | 43.2 nM | 34.7 nM |  |

| Sequence | apparent KD of MS2 coat protein (input ligand: FMN 200 uM) | apparent KD of MS2 coat protein (input ligand: none) | also measured |
| --- | --- | --- | --- |
| CCUCUACAUGAGGAUCACCCAUGUGAGGAUAUCCUGCGAGGAUCAAAAGAUCCUCGUGGGAGAAGGCAUAUGAU [Omei Ex1 A3] (Eterna round: R97, puzzle: Exclusion 1) | 36.5 nM | 26.6 nM |  |
| UGAUGUAGAGGAUAUUGUAUGGCUCACAUGAGGAUCACCCAUGUAGGAUCACCUAGAGCCCGAGAAGGCUAGAGGU [Eternabot (L2) Solution 4] (Eterna round: R97, puzzle: Exclusion 5) | 47 nM | 45.8 nM |  |
| CCAAGCUUUUUCAUUAACAACAUGAGGAUCACCCAUGUGUAAGCUAUUAGGUUUGGGCUCUUUAGUGCUCGUCUUAU [JR_STOV1_Sub041] (Eterna round: R97, puzzle: Sensor, turn-off variant 1) | 14.5 nM | 13.5 nM |  |
| UUGACGGCAGGAUAUACAUGAGGAUCACCCAUGUAAAUUUUUCGUUUAACUUGAAUGUGUAGAAGGGCCCAACC [Ex3 #78] (Eterna round: R97, puzzle: Exclusion 3) | 16.6 nM | 17.8 nM |  |
| UCGCGCCUAGGAUAUAUAAGGACUUUCUAGUAUGUUGCGAAACAUGAGGAUCACCCAUGUAGAAGGAGGUAGUG [Eternabot (L2) Solution 89] (Eterna round: R97, puzzle: Exclusion 2) | 222 nM | 77.3 nM |  |
| GUGUAGUGAGGAUAUACAUGAGGAUCACCCAUGUGAAUAAGAUAGAAUAAGAUAAAGUGUAGAAGGUAUAGUGU [Excluse me!!! 17 - Jieux - Exclusion 3] (puzzle: Exclusion 3) |  |  | apparent KD of MS2 coat protein [3]: 50 nM |
| GUUGGUUGAGAGGAUAUUGUACGCGAUGAGUGUCGAGAAGGUUCAACAUGAGGAUCACCCAUGUGGCUGAGUAA [Eternabot (L1) Solution 40] (Eterna round: R97, puzzle: Exclusion 6) | 442 nM | 32.1 nM |  |
| GGCAGGCUAGAGGAUAUGCAUUGGCUUGGCCAAGCAGAAGGCUAGACAUGAGGAUCACCCAUGUGUUCCUUGUG [jl-ex6-4.36 ViennaUCT mod] (Eterna round: R97, puzzle: Exclusion 6) | 83.5 nM | 93.6 nM |  |
| UAUUAAACAAGCAGAUCCCACAUGAGGAUCACCCAUGUGCUCGUCUUAUAAGGUACUGUGACGAAAGUCACGGUACC [Sensor 3, v1 - 91 v11] (Eterna round: R97, puzzle: Sensor, turn-off variant 1) | 56.7 nM | 62.1 nM |  |
| GAUCAUGCAGGAUAUACAUGGAACAUGAAAUCAUGAAUUUCACAUGAGGAUCACCCAUGUAGAAGGGCAUGAUC [Omei Ex2 A15] (Eterna round: R97, puzzle: Exclusion 2) | 23.1 nM | 24.9 nM |  |
| GAAAGCUUUGAGCUCGAUCACAUGAGGAUCACCCAUGUGGGAGCCAGGCGACGGCAUUCUGCGAGGGCGACUUUUGG [Eternabot (L2) Solution 42] (Eterna round: R97, puzzle: Sensor, turn-off variant 1) | 17.8 nM | 15.4 nM |  |
| ACACUGCGAGGAUAUACAUGAGGAUCACCCAUGUUAAGGAAGUCAAGGUUAAUUUAAGGUAGAAGGCGCUUAUU [JR_Ex3_Sub013] (Eterna round: R97, puzzle: Exclusion 3) | 46.2 nM | 39.7 nM |  |
| GUAGAGUCAGGAUAUACGAGAUCGAAAGAUCAAAGAUCCUUACAUGAGGAUCACCCAUGUAGAAGGGACUCUAC [Eli x2 4.14] (Eterna round: R97, puzzle: Exclusion 2) | 574 nM | 37.1 nM |  |
| AGGGAGCGAGGAUAUACAGAGUAGGAAACCACUCCCUCAGUACAUGAGGAUCACCCAUGUAGAAGGCGCCCGAA [EX2 A.8] (Eterna round: R97, puzzle: Exclusion 2) | 39.2 nM | 31.5 nM |  |
| AAGGUACAUGAGGAUCACCCAUGUGAGGAUAUCGUUGUUGAGUCUAGAGAUACAAUGUUGAGAAGGUACGGGUA [Eternabot (L2) Solution 94] (Eterna round: R97, puzzle: Exclusion 1) | 63.1 nM | 61.2 nM |  |
| ACAUGGAAGCAGGAUAUGCUUGUAUAAUUGUUUGCAGAAGGGCUAACAUGAGGAUCACCCAUGUAAGAGGUCUA [JR_E6_Sub061] (puzzle: Exclusion 6) |  |  | apparent KD of MS2 coat protein [3]: 15.9 nM |
| AUCCUGAGGCUUUGCUUUAGGCGUACAUGAGGAUCACCCAUGUAGGAUAUGGUAGGCUUUGCUUACCAGAAGGACAUUAUGAUC [JL EXNG3 1.19] (Eterna round: R96, puzzle: Exclusion NG 3) | 243 nM | 43 nM | apparent KD of MS2 coat protein [1]: 44.1 nM |
